One substance from patent US20140363416 can be followed below.

Data set [1] concerns GST-ATF2 fusion protein (Cell Signaling).
For data set [2], the target named is His/TF-tagged-XBP1s (recombinant XBP1s fusion protein purified from E. coli) (UniProt O35426).

Regarding “activated recombinant p38α MAPK (Cell Signaling)”, the “in vitro kinase assay, phosphorylation of the control substrate” value in data set [1] was “activated recombinant p38 MAPK is fully functional and phosphorylates ATF2”. Moreover, in data set [2], the “in vitro kinase assay, immunoblotting with phospho-specific antibodies for p-XBP1s^Thr48 and p-XBP1s^Ser61” value is “p38 MAPK directly phosphorylates XBP on Thr48 and Ser61 residues in the in vitro kinase assay”; the “in vitro kinase assay, incorporated 32P (phosphorylation) by autoradiography” value is given as “Incubation of XBP1s with activated recombinant p38 MAPK significantly increased phosphorylation of XBP1s”.
